In paper PMC5583147:

Columns and labels:
C3b-B complex [1] = molecular target: C3b-B complex (UniProt P01024); test: SPR; C3b amine-coupled on CM5 chip; Biacore T100, 25 C; HBS-N with 2 mM NiCl2; factor B 54 nM, Lufaxin 1 uM, together or Lufaxin after formation of C3b-B
C3b-B complex [2] = molecular target: C3b-B complex (UniProt P01024); test: SPR; C3b amine-coupled on CM5 chip; Biacore T100, 25 C; HBS-N (10 mM HEPES pH 7.4, 150 mM NaCl) with 2 mM MgCl2; factor B 54 nM, factor D 20 nM, Lufaxin up to 1 uM injected in combinations
C3b = C3b (UniProt P01024); test: SPR; C3b amine-coupled on CM5 chip; Biacore T100, 25 C; HBS-N with 2 mM NiCl2; factor B 54 nM, Lufaxin 1 uM, together or Lufaxin after formation of C3b-B

Lufaxin, sequence (Q5WPU8 24-301 limits assumed): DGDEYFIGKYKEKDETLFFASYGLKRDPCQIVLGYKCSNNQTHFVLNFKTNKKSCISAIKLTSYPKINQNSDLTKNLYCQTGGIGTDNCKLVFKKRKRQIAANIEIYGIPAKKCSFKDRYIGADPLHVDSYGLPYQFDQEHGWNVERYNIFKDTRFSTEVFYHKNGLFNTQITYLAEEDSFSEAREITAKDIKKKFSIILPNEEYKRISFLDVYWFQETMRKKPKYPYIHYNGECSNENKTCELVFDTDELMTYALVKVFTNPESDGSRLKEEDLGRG
UniProt P01024, sequence (P01024 23-667, chain 1 of 2): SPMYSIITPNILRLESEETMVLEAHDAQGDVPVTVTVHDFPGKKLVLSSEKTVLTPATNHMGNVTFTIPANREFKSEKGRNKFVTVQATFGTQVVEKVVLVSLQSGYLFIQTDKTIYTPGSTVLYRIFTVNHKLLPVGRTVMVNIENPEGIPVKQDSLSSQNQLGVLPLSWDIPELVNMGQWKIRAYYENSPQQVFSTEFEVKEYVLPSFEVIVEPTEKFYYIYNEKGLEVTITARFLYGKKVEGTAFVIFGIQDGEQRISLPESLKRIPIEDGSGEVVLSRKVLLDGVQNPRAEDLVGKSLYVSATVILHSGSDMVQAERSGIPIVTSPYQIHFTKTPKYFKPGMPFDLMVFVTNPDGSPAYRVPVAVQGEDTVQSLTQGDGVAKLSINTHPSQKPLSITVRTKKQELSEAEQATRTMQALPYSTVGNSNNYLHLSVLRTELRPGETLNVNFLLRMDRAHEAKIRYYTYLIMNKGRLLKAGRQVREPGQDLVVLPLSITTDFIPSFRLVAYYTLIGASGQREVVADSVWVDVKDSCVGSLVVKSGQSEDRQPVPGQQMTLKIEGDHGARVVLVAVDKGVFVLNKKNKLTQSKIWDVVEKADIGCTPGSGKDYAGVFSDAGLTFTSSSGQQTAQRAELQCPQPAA
UniProt P01024, sequence (P01024 749-1663, chain 2 of 2): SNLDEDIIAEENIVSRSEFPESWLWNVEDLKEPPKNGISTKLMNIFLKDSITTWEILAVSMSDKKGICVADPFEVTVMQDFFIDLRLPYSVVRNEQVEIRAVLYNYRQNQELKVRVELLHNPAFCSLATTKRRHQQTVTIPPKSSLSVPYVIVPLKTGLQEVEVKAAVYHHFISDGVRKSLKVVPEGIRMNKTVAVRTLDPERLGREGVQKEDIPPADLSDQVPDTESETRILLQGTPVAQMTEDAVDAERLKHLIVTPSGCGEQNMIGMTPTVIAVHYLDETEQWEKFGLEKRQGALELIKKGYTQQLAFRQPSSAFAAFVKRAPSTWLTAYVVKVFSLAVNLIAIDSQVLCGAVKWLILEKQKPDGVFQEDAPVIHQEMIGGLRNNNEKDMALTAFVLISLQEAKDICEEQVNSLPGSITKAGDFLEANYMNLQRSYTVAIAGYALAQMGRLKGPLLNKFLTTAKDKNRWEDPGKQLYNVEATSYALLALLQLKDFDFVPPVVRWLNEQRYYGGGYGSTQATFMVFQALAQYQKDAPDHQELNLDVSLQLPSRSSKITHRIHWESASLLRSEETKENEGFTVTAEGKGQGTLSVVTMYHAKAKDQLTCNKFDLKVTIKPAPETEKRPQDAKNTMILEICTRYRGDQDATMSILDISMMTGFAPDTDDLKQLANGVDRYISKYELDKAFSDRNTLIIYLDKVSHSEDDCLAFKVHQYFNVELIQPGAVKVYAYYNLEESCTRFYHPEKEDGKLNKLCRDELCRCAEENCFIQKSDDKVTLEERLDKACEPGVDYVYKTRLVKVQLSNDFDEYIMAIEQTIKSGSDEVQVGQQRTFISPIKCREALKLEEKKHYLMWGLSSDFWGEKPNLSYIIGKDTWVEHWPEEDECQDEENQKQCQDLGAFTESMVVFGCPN

| half-time of dissociation of C3b-B-Lufaxin from the C3b surface (Ni2+) (C3b-B complex [1]) [s] | half-time of dissociation of C3b-B-Lufaxin from the C3b surface (Mg2+) (C3b-B complex [2]) [s] | half-time of dissociation of C3b-B (Ni2+) (C3b) [s] | Substance |
| --- | --- | --- | --- |
| 400 | 135 |  | Lufaxin (natural protein) |
|  |  | 600 | factor B (natural protein) |
